# ± gives the uncertainty stated by the source.
# Assay: protein stability index of a GFP-peptide fusion (yeast GPS) (PSI 1-4); higher = more stable; sorted into four equal gates, so the index is relative within each strain
# Details: pdr5∆
# Outline: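 Each library plasmid carries Cherry plus GFP with a tiled 17-residue yeast protein peptide fused downstream, and the pooled library was carried in yeast. Mid-log cultures in leucine-free medium were sorted into four equal gates by GFP/Cherry ratio. Reads from Illumina sequencing of PCR-amplified plasmids from each gate were assigned to strains by barcodes. Per peptide, the protein stability index was computed as the summed products of gate read frequency and gate number.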
row,Sequence,protein stability index
1,GTPLLEVRGQVPVIESA [SNU114],1.88 ± 0.052
2,GTPLQNNLHELWALLNF [ISW2],2.55 ± 0.051
3,GVDNLRRMGILKKILDQ [RPO31],2.7 ± 0.11
4,GVEVRVTPTKTEVIIRA [RPS3],1.73 ± 0.047
5,GVIIKVEESGEHVILGN [SNU114],2.81 ± 0.086
6,GVKDCQEGLITTTMLQL [SSN2],2.5 ± 0.1
7,GVNGYIWLRKTSQMDLA [RRP4],2.74 ± 0.068
8,GVQSNGDQFLRYVNLLG [PRE4],2.51 ± 0.05
9,GVSLLALWKEKKEKPRS [RPS23A],2.29 ± 0.11
10,GVVVLRDREPKEPVALI [RPN2],3.21 ± 0.11
11,GVYSDDELLSQLDLCKL [SRP68],3.21 ± 0.053
12,GYCDDIAAMVAQKCGWT [SIR2],1.9 ± 0.094
13,GYDDFQEEGSFEFGNMK [FAS2],3.26 ± 0.18
14,GYDINYISKIGEKIDSN [SWI1],2.98 ± 0.085
15,GYLFKVSALDKCIKYSE [ECM29],2.11 ± 0.09
16,GYLITPPKHTELLLTTL [SSN2],1.86 ± 0.052
17,GYMQKPVYATIGVETGS [PRP28],2.23 ± 0.21
18,HADKDTFSSSISTYIST [POP8],2.58 ± 0.037
19,HAQSKREGRHSGYGKRK [RPL19A],2.9 ± 0.08
20,HARARGPRAVLTRQPTE [RET1],3.31 ± 0.068
21,HARGGGAISAVAATNTP [SRP54],2.35 ± 0.12
22,HCDKCSVVLTLQAFGES [RPB3],3.19 ± 0.14
23,HDIIEGINAGEIEIPEN [RPL12A],2.52 ± 0.072
24,HDISRYVRAKFLDYTTD [PRP8],1.99 ± 0.088
25,HDNHGNKLGNKRLTEDE [CDC53],2.84 ± 0.069
26,HEEDQKTNIIEKAMDYA [RPN12],2.75 ± 0.078

row,Sequence,protein stability index
1,HEIITVGPHFKQANNFL [RPL7A],2.7 ± 0.069
2,HEVEEILNELQPNARAL [SMC1],3.4 ± 0.12
3,HFKKPDITVHGEQIIVH [RRP45],1.37 ± 0.23
4,HGILDDLETSLSQSSSY [MED2],3.33 ± 0.1
5,HGSIIILGMLSLADNEI [YCS4],2.04 ± 0.069
6,HGTYFLDNMTYSSVAGT [RRP4],2.3 ± 0.043
7,HGVLQGTSQNYGTATAD [MED1],3.13 ± 0.076
8,HHSWSQSDLEIITQYVF [ARP9],2.82 ± 0.056
9,HIEGVVILKKNPDYREE [RPN1],3.07 ± 0.096
10,HIKFSAGTEANAVSFDT [SRB4],2.16 ± 0.055
11,HIMEPCIECQPKAMTDT [HRT1],3.25 ± 0.091
12,HKMGVERSSKRLAKKPS [SIR3],3.27 ± 0.067
13,HKPNEGRTPNISNGTIN [SIR4],2.9 ± 0.046
14,HLEALQPLFSTVPEYLK [PGD1],1.69 ± 0.045
15,HLIFSNARIYNTEGSVV [SNF2],3.39 ± 0.18
16,HLKILASSNFPFLNETK [RPC82],2.61 ± 0.064
17,HLLPAFLKVKGLVKQHL [RET1],3.8 ± 0.2
18,HLRKLLDGELDFDDFLK [RET1],2.95 ± 0.1
19,HLRVRVHPFHVLRINKM [RPL10],1.21 ± 0.072
20,HLVWMKGTNDEGTSISV [YCS4],2.23 ± 0.086
21,HNKLIQFGNACISLSGV [SSN2],2.84 ± 0.14
22,HNMKAYYKKFLIEPLPT [BRR2],1.58 ± 0.07
23,HPAHVMWSVARAGQRGY [RPL3],1.83 ± 0.22
24,HPIRVLMASVILDSLPS [YDL116W/NUP84],1.52 ± 0.042
25,HQGSGGSVMSASVEIVF [SMC3],2.56 ± 0.081
26,HRTIVIRRAYLHYIPKY [RPS11A],1.55 ± 0.042
